The test concerns the target HSF1β-EGFP (heat shock factor 1, short β splicing isoform, fused to EGFP) (mouse).

Chain of HSF1β-EGFP (heat shock factor 1, short β splicing isoform, fused to EGFP) (mouse) (P38532 whole entry, the tested form may be a part, canonical isoform): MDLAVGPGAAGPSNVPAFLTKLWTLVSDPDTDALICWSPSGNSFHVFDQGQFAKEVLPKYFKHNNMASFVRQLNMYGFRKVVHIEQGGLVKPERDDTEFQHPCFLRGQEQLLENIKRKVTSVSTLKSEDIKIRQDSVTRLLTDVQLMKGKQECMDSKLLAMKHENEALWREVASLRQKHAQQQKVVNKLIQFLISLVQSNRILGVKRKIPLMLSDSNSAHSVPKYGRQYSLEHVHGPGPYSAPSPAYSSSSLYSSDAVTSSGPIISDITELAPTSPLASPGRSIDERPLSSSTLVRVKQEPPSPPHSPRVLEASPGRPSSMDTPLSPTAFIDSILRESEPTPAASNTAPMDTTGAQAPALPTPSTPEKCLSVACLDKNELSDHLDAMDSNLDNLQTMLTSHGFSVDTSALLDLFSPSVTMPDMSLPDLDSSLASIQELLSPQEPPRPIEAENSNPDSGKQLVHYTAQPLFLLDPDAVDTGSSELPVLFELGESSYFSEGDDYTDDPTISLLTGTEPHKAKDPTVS

For the substance “HSF2β (heat shock factor 2, short β splicing isoform) (natural protein)”, the HSE-driven firefly luciferase reporter activity of HSF1β in Hsf1.2−/− iMEFs co-transfected with HSF2β, MG132 at 2.5 µM turned out to be 3 fold.

The record behind these values is publication PMC3572029.
